Here are results for three molecules from PMC3364216, “The RuvA Homologues from Mycoplasma genitalium and Mycoplasma pneumoniae Exhibit Unique Functional Characteristics”.

For one series, the target named is RecUMge (Mycoplasma genitalium, UniProt Q49422 1-166). Kind of series: EMSA; on ice, no BSA; three major and one minor complex at 500 nM; 20 mM Tris-HCl pH 7.5, 1 mM DTT, 1 mM EDTA, 12.3 nM DNA, 10 ul, on ice 10 min; 8% PAGE in 0.5x TBE; +/- 10 mM Mg2+. On the technique in general: In EMSA bound probe runs differently from free probe, usually more slowly.
Series [1] has as its target T1, RuvAMge (Mycoplasma genitalium G37 (ATCC 33530), UniProt Q49424 1-205). Kind of series: EMSA; no Mg2+; single complex up to 4 uM protein; 20 mM Tris-HCl pH 7.5, 1 mM DTT, 1 mM EDTA, 12.3 nM DNA, 10 ul, on ice 10 min; 8% PAGE in 0.5x TBE; +/- 10 mM Mg2+. Particulars: protein: recombinant; tags: N-terminal H10 (pET-16b); chain copies: 4; four-way Holliday junction HJ11:HJ12:HJ13:HJ14.

The target of series [2] is T2, RuvAMpn (Mycoplasma pneumoniae M129 (ATCC 29342), UniProt P75243 1-206).
T2 sequence: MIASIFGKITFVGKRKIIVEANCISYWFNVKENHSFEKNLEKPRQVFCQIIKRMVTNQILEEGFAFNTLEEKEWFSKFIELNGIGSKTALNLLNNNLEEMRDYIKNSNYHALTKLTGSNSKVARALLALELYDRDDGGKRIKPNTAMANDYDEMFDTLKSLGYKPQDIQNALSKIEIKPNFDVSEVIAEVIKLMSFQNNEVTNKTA
Kind of series: EMSA; no Mg2+; two complexes (I and II); 20 mM Tris-HCl pH 7.5, 1 mM DTT, 1 mM EDTA, 12.3 nM DNA, 10 ul, on ice 10 min; 8% PAGE in 0.5x TBE; +/- 10 mM Mg2+. The conditions noted are these: protein: recombinant; tags: N-terminal H10 (pET-16b); chain copies: 4; four-way Holliday junction HJ11:HJ12:HJ13:HJ14.

Series [3] deals with T1, RuvAMge. Kind of series: EMSA; no Mg2+; part of the complexes is with residual ss HJ11; 20 mM Tris-HCl pH 7.5, 1 mM DTT, 1 mM EDTA, 12.3 nM DNA, 10 ul, on ice 10 min; 8% PAGE in 0.5x TBE; +/- 10 mM Mg2+. The conditions noted are these: protein: recombinant; tags: N-terminal H10 (pET-16b); chain copies: 4; 5' overhang 1 nt on HJ11rv.
The target of series [4] is T2, RuvAMpn. Described as above. Particulars: protein: recombinant; tags: N-terminal H10 (pET-16b); chain copies: 4; 5' overhang 1 nt on HJ11rv.
For series [5], the target named is T2, RuvAMpn. Kind of series: EMSA; no Mg2+; efficiency similar to HJ; 20 mM Tris-HCl pH 7.5, 1 mM DTT, 1 mM EDTA, 12.3 nM DNA, 10 ul, on ice 10 min; 8% PAGE in 0.5x TBE; +/- 10 mM Mg2+. Particulars: protein: recombinant; tags: N-terminal H10 (pET-16b); single strand.

B1: HJ 1.1 (structured_DNA)
DNA 1: GCGACGTGATCACCAGATGATTGCTAGGCATGCTTTCCGCAAGAGAAGC
DNA 2: GGCTTCTCTTGCGGAAAGCATGCCTAGCAATCCTGTCAGCTGCATGGAAC
DNA 3: GGTTCCATGCAGCTGACAGGATTGCTAGGCTCAAGGCGAACTGCTAACGG
DNA 4: ACCGTTAGCAGTTCGCCTTGAGCCTAGCAATCATCTGGTGATCACGTCGC
With B1, the binding result in the series with RecUMge, with RuvAMge [1] and with RuvAMpn [2] was “binds” in each case.

B2: HJ11/HJ11rv (dsDNA)
DNA 1: GCGACGTGATCACCAGATGATTGCTAGGCATGCTTTCCGCAAGAGAAGC
DNA 2: GGCTTCTCTTGCGGAAAGCATGCCTAGCAATCATCTGGTGATCACGTCGC
Regarding B2, the binding result with RuvAMge [3] and in the series with RuvAMpn [4] was “binds” in each case.

GCGACGTGATCACCAGATGATTGCTAGGCATGCTTTCCGCAAGAGAAGC (ssDNA) [HJ11]: the binding result with RuvAMpn [5] is given as “binds”.
